# Results as given in patent US20230213527A1, “COMPOSITIONS AND METHODS FOR POLYPEPTIDE ANALYSIS” (Quantum-Si Incorporated, priority 2021, published 2023).
# Key:
# [1] = molecular target: RLp… (SEQ ID NO: 824), state with N-terminal leucine (Lp…); experiment: single-molecule on-chip sequencing with PS691, PS610 and PS961
# [2] = molecular target: … (SEQ ID NO: 823), state with N-terminal leucine (…); experiment: as above
binder,measurement,setting,value
PS961 (designed binder) MPTAASATESAIEDTPAPARPEVDGRTKPKRQPRYHVVLWDDDDHTYQYVVVMLRSLFGHPPSRGYRMAKEMDTQGRVIVLTTTREHAELKRDQIHAFGRDRLLARSKGSMKASIEAEE,RS mean PD,[1],3.4 s
same,RS mean PD,[2],2.45 s
